The target in this assay is p300 (endogenous human E1A-associated 300 kD protein) (human). Put plainly: co-immunoprecipitation with anti-E1A M73 from 35S labelled infected U-2 OS cells.

This is an account of results in patent publication US5658784, “Nucleic acid encoding transcription factor p300 and uses of p300” (Dana-Farber Cancer Institute, Inc., dated 1997).

B1: E1A proteins of adenovirus dl646 (missing amino acids 30-85) (other)
chain: MRHIICHGGVITEEMAASLLDQLIEEVLAAPGSPEPPHLSRQPEQPEQRALGPVSMPNLVPEVIDLTCHEAGFPPSDDEDEEGEEFVLDYVEHPGHGCRSCHYHRRNTGDPDIMCSLCYMRTCGMFVYSPVSEPEPEPEPEPEPARPTRRPKMAPAILRRPTSPVSRECNSSTDSCDSGPSNTPPEIHPVVPLCPIKPVAVRVGGRRQAVECIEDLLNEPGQPLDLSCKRPRP
B1: the binding result is reported as “no binding”.
